According to article PMC4932716:

Experiments:
[1] = target: native ArtinM (jArtinM) (Artocarpus heterophyllus); experiment: SDS-PAGE of undenatured sample; undenatured protein (no thermal dissociation) loaded on 12.5 % SDS-PAGE, 3 μg per lane, Coomassie blue G-250
[2] = target: recombinant ArtinM (rArtinM) (Artocarpus heterophyllus); experiment: AUC; sedimentation velocity at 50,000 rpm, 20 °C, c(S) fit in SEDFIT; confirmed by sedimentation equilibrium

Substance	stoichiometry N [1]	stoichiometry N [2]
native ArtinM (jArtinM) (natural protein)	4	
recombinant ArtinM (rArtinM) (natural protein)		3
